Measured values: patent US8252737B2, “Antimicrobial peptides and methods of use” (priority 2004, dated 2012)

How the values were obtained:
[1] = RP-HPLC temperature profiling (hydrophobicity and self-association/dimerization parameter PA); assay type: physicochemical
Description: The retention time data for the peptides is shown in Table 5 which records retention times at 5° C., the maximal retention times and retention times at 80° C. during the temperature profiling. Temperatures of 5° C. and 80° C. were the lower and upper temperature limits of temperature profiling in RP-HPLC, representing dimerization of the peptides at 5° C. and the monomerization of peptides at 80° C. due to dissociation of the dimers. The maximal retention times represent the threshold points at which peptides transform from dimeric to monomeric form. Among the non-polar face substituted peptides, peptides with more hydrophobic substitutions (whether L- or D-amino acid substitutions) were more retained during RP-HPLC, i.e., peptides were eluted in the order of Lys, Gly, Ser, Ala, Val and Leu (Table 5). In addition, on the non-polar face, the L-analogs were always more retained than the D-diastereomers (Table 5, FIG. 5). […] In contrast, on the polar face, the elution order of peptides was not correlated with the order of amino acid side-chain hydrophobicity, e.g., PAL and PSL were more retained than PVL (Table 5); PSD was the most retained peptide among the D-amino acid substituted analogs on the polar face (Table 5).
The ability of the D-peptides to self-associate was determined by RP-HPLC temperature profiling. […] As expected, L- and D-peptide enantiomers were totally inseparable over this temperature range, since each pair of peptides is identical in sequence and must adopt identical conformations on interacting with the reversed-phase matrix, whether in an all-L- or all-D-conformation. RP-HPLC retention behavior has been frequently utilized to represent overall peptide hydrophobicity (53, 26). In the present study, the hydrophobicity of the three peptide pairs is in the order V681/D-V681>[…]>NKL/D-NKD (Table 4), which agrees with the change in hydrophobicity of the substitutions at position 13 in order of the most hydrophobic to the least hydrophobic amino acid residue (Val in V681>Ala in NA>Lys in NK) (54). […] For example, the retention times of peptides V681/D-V681 increase with increasing temperature (up to ˜30° C.) followed by a retention time decrease with a further temperature increase. […] Since peptide C is a monomeric random coil peptide in both aqueous and hydrophobic media, its retention behavior over the temperature range 5° C. to 80° C. represents only general temperature effects on peptide retention behavior, i.e., a linear decrease in peptide retention time with increasing temperature due to greater solute diffusivity and enhanced mass transfer between the stationary and mobile phases at higher temperatures (55). Thus, after normalization to the retention times of peptide C, the retention behavior of the peptides represents only peptide self-association ability. Note that the higher the PA value, the greater the self-association ability. […] From Table 4, it is also clear that the peptide retention times at 80° C. are dramatically lower than those at 5° C.
Elution times during RP-HPLC have frequently been utilized as a measure of relative hydrophobicity of peptide analogs (26, 31). In the current study, peptide analogs differed only by a single amino acid substitution on either the non-polar face or the polar face of V681; thus, the retention time data in Table 5 can be considered to reflect the hydrophobicity difference between peptide analogs. In order to more easily visualize the variation in hydrophobicity of the peptide analogs, the retention time data in Table 5 were normalized relative to that of the native peptide V681 at 5° C. and 80° C., respectively. Hydrophobicity relative to the native peptide V681 indicates an increase or decrease of the apparent peptide hydrophobicity with the different amino acid substitutions on the polar or non-polar face. […]

[2] = 50% TFE, 5° C., previous study (29); cited from earlier work

## Ac-ELEKGGLEGEKGGKELEK-amide (Ac-ELEKGGLEGEKGGKELEK-NH2) [peptide C, reference compound]
[1]; RP-HPLC retention time at 5° C. during temperature profiling (measure of hydrophobicity)
  tR (min) 5° C.: 22.74 min
[1]; RP-HPLC retention time at 80° C. during temperature profiling
  tR (min) 80° C.: 18.64 min
[2]
  [θ]222: −3,950
